Data on 21 molecules can be found in patent publication US20230235004A1 (published 2023).

Positions count from the first letter of the chain named.

For test [1], the target named is T1, mouse MAdCAM expressed on cells (mouse, UniProt Q61826 22-405).
T1 construct: whole, on cells
T1 sequence (looked up): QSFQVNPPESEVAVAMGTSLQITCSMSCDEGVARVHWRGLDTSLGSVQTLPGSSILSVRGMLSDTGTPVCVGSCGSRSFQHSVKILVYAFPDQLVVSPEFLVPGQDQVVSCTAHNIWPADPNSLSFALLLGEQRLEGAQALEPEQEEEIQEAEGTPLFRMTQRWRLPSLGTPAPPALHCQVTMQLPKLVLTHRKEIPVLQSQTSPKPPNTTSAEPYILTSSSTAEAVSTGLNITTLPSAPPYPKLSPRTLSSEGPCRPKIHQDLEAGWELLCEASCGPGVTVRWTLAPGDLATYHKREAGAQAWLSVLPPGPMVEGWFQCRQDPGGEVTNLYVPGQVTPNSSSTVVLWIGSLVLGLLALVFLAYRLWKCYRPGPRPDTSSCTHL
The test can be described thus: cell binding.

The target in test [2] is T2, human MAdCAM expressed on cells (human, UniProt Q13477 19-382).
T2 construct: whole, on cells
T2 sequence (looked up): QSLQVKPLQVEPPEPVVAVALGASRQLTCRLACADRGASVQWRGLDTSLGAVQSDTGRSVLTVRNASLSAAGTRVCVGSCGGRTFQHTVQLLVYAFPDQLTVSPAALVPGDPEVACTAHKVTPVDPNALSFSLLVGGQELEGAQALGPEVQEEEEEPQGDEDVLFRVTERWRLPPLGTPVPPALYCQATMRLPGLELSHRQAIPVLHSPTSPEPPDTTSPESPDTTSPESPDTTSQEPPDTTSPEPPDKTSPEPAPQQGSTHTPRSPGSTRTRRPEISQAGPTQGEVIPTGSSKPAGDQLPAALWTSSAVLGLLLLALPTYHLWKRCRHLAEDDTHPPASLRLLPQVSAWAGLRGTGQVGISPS
Description: cell binding.

B1: MAdCAM Antibody Table 2 clone 18 (antibody, V domains shown)
VH: QVQLVQSGAEVKKPGSSVKVSCKASGYTFTNYYMHWVRQAPGQGLEWMGGIIPIVDRVKYAQKFQGRVTITADESTSTAYMELSSLRSEDTAVYYCAKGRYTVNYYYGMDVWGQGTTVTVSS
VL: DIQMTQSPSSLSASVGDRVTITCQANQDISNYLNWYQQKPGKAPKLLIYRASKLEAGVPSRFSGSGSGTDFTLTISSLQPEDFATYYCQQSSEIPYSFGQGTKLEIK
notes: IgG format
With B1, the results for the binding result in test [1] and in test [2] were “no binding” and “binds”, respectively.

B2: MAdCAM Antibody Table 2 clone 9 (antibody, V domains shown)
VH: QVQLVQSGAEVKKPGASVKVSCKASGYTFTSYYMHWVRQAPGQGLEWMGIINHSGGSTSYAQKFQGRVTMTRDTSTSTVYMELSSLRSEDTAVYYCARPYSGWYFAFDIWGQGTLVTVSS
VL: not shown
notes: IgG format
With B2, the binding result in test [1] is “no binding”.

B3: MAdCAM Antibody Table 2 clone 19 (antibody, V domains shown)
VH: EVQLLESGGGLVQPGGSLRLSCAASGFTFEDYAMHWVRQAPGKGLEWVSYLNSDGGSTSYADSVKGRFTISRDNSKNTLYLQMNSLRAEDTAVYYCAKDYCTNGVCAFDYWGQGTLVTVSS
VL: DIQMTQSPSSLSASVGDRVTITCRASQSISTYLNWYQQKPGKAPKLLIYDASNLETGVPSRFSGSGSGTDFTLTISSLQPEDFATYYCQQSYTIPITFGQGTRLEIK
notes: IgG format
With B3, the binding result is listed as “no binding” in test [1] and “binds” in test [2].

B4: MAdCAM Antibody Table 2 clone 34 (antibody, V domains shown)
VH: QVQLVQSGAEVKKPGASVKVSCKASGYTFTGYYIHWVRQAPGQGLEWMGWMNPNSGNTGYAQKFQGRVTMTRDTSTSTVYMELSSLRSEDTAVYYCARDPGFLGYCSGGSCYDGWFDPWGQGTLVTVSS
VL: B3 VL with T31S, N34H, D50A, N53S, E55Q, T56S, I94A, I96Y, R103K
notes: IgG format
Consider B4, for which the results for the binding result in test [1] and in test [2] were “no binding” and “binds”, respectively.

B5: MAdCAM Antibody Table 2 clone 35 (antibody, V domains shown)
VH: B4 VH with C106S, C111S
VL: B3 VL with T31S, N34H, D50A, N53S, E55Q, T56S, I94A, I96Y, R103K
notes: IgG format
Regarding B5, in test [1], the binding result is on record as “no binding”.

B6: MAdCAM Antibody Table 2 clone 13 (antibody, V domains shown)
VH: QVQLVQSGAEVKKPGASVKVSCKASGYTFTTYYMHWVRQAPGQGLEWMGGFDPEDGETIYAQKFQGRVTMTRDTSTSTVYMELSSLRSEDTAVYYCARHAVAGAVGAGYYYYGMDVWGQGTMVTVSS
VL: DIQMTQSPSSLSASVGDRVTITCRASESISNWLAWYQQKPGKAPKLLIYAASTLQSGVPSRFSGSGSGTDFTLTISSLQPEDFATYYCQQSYSVPFTFGPGTKVDIK
notes: IgG format
For the molecule B6, the binding result in test [1] is “no binding”; in test [2], “binds”.

B7: MAdCAM Antibody Table 2 clone 21 (antibody, V domains shown)
VH: EVQLVESGGGLVKPGGSLRLSCAASGFTFSSYWMSWVRQAPGKGLEWVSYISGDSGYTNYAAPVKGRFTISRDDSKNTLYLQMNSLKTEDTAVYYCARANSSGWYDWYFDLWGRGTLVTVSS
VL: not shown
notes: IgG format
Consider B7, for which the binding result in test [1] was “no binding”; in test [2], “binds”.

B8: MAdCAM Antibody Table 2 clone 45 (antibody, V domains shown)
VH: EVQLVESGGGLVKPGGSLRLSCAASGFTFGDYAMSWVRQAPGKGLEWVSYISGDIGYTNYAAPVKGRFTISRDDSKNTLYLQMNSLKTEDTAVYYCARDVAATGNWYFDLWGRGTLVTVSS
VL: not shown
notes: IgG format
B8: the binding result in test [1] is on record as “no binding”.

B9: MAdCAM Antibody Table 2 clone 26 (antibody, V domains shown)
VH: EVQLLESGGGLVQPGGSLRLSCAASGFTFSSYAMSWVRQAPGKGLEWVSYISSSSTYTNYADSVKGRFTISRDNSKNTLYLQMNSLRAEDTAVYYCARANSSSWYDWYFDLWGQGTLVTVSS
VL: not shown
notes: IgG format
Consider B9, for which the binding result is “no binding” in test [1] and “binds” in test [2].

B10: MAdCAM Antibody Table 2 clone 27 (antibody, V domains shown)
VH: B9 VH with A33Q
VL: not shown
notes: IgG format
Turning to B10, the binding result in test [1] is reported as “no binding”; in test [2] it was “binds”.

B11: MAdCAM Antibody Table 2 clone 52 (antibody, V domains shown)
VH: EVQLLESGGGLVQPGGSLRLSCAASGFTFDDYGMSWVRQAPGKGLEWVSYISSSSSYIYYADSVKGRFTISRDNSKNTLYLQMNSLRAEDTAVYYCAREIAAAGFYGMDVWGQGTTVTVSS
VL: not shown
notes: IgG format
Turning to B11, in test [1], the binding result is given as “no binding”.

B12: MAdCAM Antibody Table 2 clone 15 (antibody, V domains shown)
VH: QVQLVQSGAEVKKPGASVKVSCKASGYTFTGYYMHWVRQAPGQGLEWMGWIGPNSGDTNYAQKFQGRVTMTRDTSTSTVYMELSSLRSEDTAVYYCARDLDHNWYFDLWGRGTLVTVSS
VL: DIVMTQSPLSLPVTPGEPASISCRSSQSLLHSNGYNYLDWYLQKPGQSPQLLIYSSSNRAPGVPDRFSGSGSGTDFTLKISRVEAEDVGVYYCMQALHIPLTFGGGTKVEIK
notes: IgG format
For B12, the binding result in test [1] is on record as “no binding”; in test [2], “binds”.

B13: MAdCAM Antibody Table 2 clone 10 (antibody, V domains shown)
VH: EVQLLESGGGLVQPGGSLRLSCAASGFMFGDYAMHWVRQAPGKGLEWVSAISGSGGSTYYADSVKGRFTISRDNSKNTLYLQMNSLRAEDTAVYYCAKDLVVAGIWYFDLWGRGTLVTVSS
VL: DIQMTQSPSSLSASVGDRVTITCRASQGISNNLNWYQQKPGKAPKLLIYDASSLESGVPSRFSGSGSGTDFTLTISSLQPEDFATYYCQQTHSFPSTFGQGTKLEIK
notes: IgG format
In the case of B13, the binding result in test [1] and in test [2] was “binds” each time.

B14: MAdCAM Antibody Table 2 clone 1 (antibody, V domains shown)
VH: EVQLLESGGGLVQPGGSLRLSCAASGFTFSSYGMHWVRQAPGKGLEWVAVISDDGSDKYYADSVKGRFTISRDNSKNTLYLQMNSLRAEDTAVYYCTTSKYYYYYGMDVWGQGTTVTVSS
VL: DIQMTQSPSSLSASVGDRVTITCQASQDISKSLNWYQQKPGKAPKLLIYAASSLQSGVPSRFSGSGSGTDFTLTISSLQPEDFATYYCQQGYSTPLTFGGGTKVEIK
notes: IgG format
With B14, the binding result in test [1] and in test [2] was “binds” each time.

B15: MAdCAM Antibody Table 2 clone 37 (antibody, V domains shown)
VH: EVQLLESGGGLVQPGGSLRLSCAASGFTFSDYGMPWVRQAPGKGLEWVSAISGSGGSTYYADSVKGRFTISRDNSKNTLYLQMNSLRAEDTAVYYCARDGGWQPAAILDYWGQGTLVTVSS
VL: B13 VL with S53N, S56T, T91S, H92Y, F94T, S96L, L104V
notes: IgG format
Regarding B15, the values for the binding result in test [1] and in test [2] were “no binding” and “binds”, respectively.

B16: MAdCAM Antibody Table 2 clone 16 (antibody, V domains shown)
VH: EVQLLESGGGLVQPGGSLRLSCAASGFTFDDYAMHWVRQAPGKGLEWVSYIDASGTTIYYADSVKGRFTISRDNSKNTLYLQMNSLRAEDTAVYYCAKDQAAAGYWYFDLWGRGTLVTVSS
VL: B3 VL with R24Q, S28D, T31N, D50K, N53T, T56S, T93S, I94T
notes: IgG format
Regarding B16, the results for the binding result in test [1] and in test [2] were “no binding” and “binds”, respectively.

B17: MAdCAM Antibody Table 2 clone 40 (antibody, V domains shown)
VH: QVQLVQSGAEVKKPGASVKVSCKASGYTLTTWYMYWVRQAPGQGLEWMGWINPNRGATNYAQKFQGRVTMTRDTSTSTVYMELSSLRSEDTAVYYCAKGDLWGAMDVWGQGTLVTVSS
VL: B14 VL with Q24R, Q27D, D28N, S30G, K31S, S32W, N34A, L96P, G100Q
notes: IgG format
Regarding B17, in test [1], the binding result is listed as “no binding”.

B18: MAdCAM Antibody Table 2 clone 25 (antibody, V domains shown)
VH: EVQLLESGGGLVQPGGSLRLSCAASGFTFSNAWMSWVRQAPGKGLEWVSTIVGNGGATYYADSVKGRFTISRDNSKNTLYLQMNSLRAEDTAVYYCARDNPLRWQGMDVWGQGTLVTVSS
VL: B6 VL with E27Q, S28D, W32Y, A34N, T53S, V94I, F96P
notes: IgG format
With B18, the binding result is reported as “no binding” in test [1] and “binds” in test [2].

B19: MAdCAM Antibody Table 2 clone 32 (antibody, V domains shown)
VH: B17 VH
VL: B14 VL with Q24R, Q27D, D28N, S30G, K31S, S32W, N34A, L96P, G100Q
notes: IgG format
For the molecule B19, the binding result in test [1] was “no binding”.

B20: MAdCAM Antibody Table 2 clone 12 (antibody, V domains shown)
VH: B17 VH
VL: B14 VL with Q24R, Q27D, D28N, S30G, K31S, S32W, N34A, L96P, G100Q
notes: IgG format
Turning to B20, the binding result in test [1] is on record as “no binding”; in test [2] it was “binds”.

B21: MAdCAM Antibody Table 2 clone 33 (antibody, V domains shown)
VH: B17 VH with L113T
VL: B14 VL with Q24R, Q27D, D28N, S30G, K31S, S32W, N34A, L96P, G100Q
notes: IgG format
B21: in test [1], the binding result is listed as “no binding”.
